Assay results as given in US20250339531A1, “DUX4 POLYPEPTIDES AND NUCLEIC ACIDS FOR TREATING INFLAMMATORY AND AUTOIMMUNE CONDITIONS” (Fred Hutchinson Cancer Center, priority 2021, published 2025).

Key:
Assay in all cases: anti-FLAG co-IP LC-MS, exp 3, +IFNg +Dox
[1] = target: 4F2 cell-surface antigen heavy chain (Homo sapiens) (UniProt P08195)
[2] = target: 60S acidic ribosomal protein P0 (Homo sapiens) (UniProt P05388)
[3] = target: 60S ribosomal protein L11 (Homo sapiens) (UniProt P62913)
[4] = target: 60S ribosomal protein L18 (Fragment) (Homo sapiens) (UniProt Q07020)
[5] = target: 60S ribosomal protein L19 (Homo sapiens) (UniProt P84098)
[6] = target: 60S ribosomal protein L29 (Homo sapiens) (UniProt P47914)
[7] = target: 60S ribosomal protein L3 (Homo sapiens) (UniProt P39023)
[8] = target: 60S ribosomal protein L4 (Homo sapiens) (UniProt P36578)
[9] = target: 60S ribosomal protein L7a (Homo sapiens) (UniProt P62424)
[10] = target: 60S ribosomal protein L8 (Homo sapiens) (UniProt P62917)
[11] = target: ATP synthase subunit alpha, mitochondrial (Homo sapiens) (UniProt P25705)
[12] = target: Alpha-actinin-4 (Homo sapiens) (UniProt O43707)
Alpha-actinin-4 (Homo sapiens), sequence (O43707 whole entry): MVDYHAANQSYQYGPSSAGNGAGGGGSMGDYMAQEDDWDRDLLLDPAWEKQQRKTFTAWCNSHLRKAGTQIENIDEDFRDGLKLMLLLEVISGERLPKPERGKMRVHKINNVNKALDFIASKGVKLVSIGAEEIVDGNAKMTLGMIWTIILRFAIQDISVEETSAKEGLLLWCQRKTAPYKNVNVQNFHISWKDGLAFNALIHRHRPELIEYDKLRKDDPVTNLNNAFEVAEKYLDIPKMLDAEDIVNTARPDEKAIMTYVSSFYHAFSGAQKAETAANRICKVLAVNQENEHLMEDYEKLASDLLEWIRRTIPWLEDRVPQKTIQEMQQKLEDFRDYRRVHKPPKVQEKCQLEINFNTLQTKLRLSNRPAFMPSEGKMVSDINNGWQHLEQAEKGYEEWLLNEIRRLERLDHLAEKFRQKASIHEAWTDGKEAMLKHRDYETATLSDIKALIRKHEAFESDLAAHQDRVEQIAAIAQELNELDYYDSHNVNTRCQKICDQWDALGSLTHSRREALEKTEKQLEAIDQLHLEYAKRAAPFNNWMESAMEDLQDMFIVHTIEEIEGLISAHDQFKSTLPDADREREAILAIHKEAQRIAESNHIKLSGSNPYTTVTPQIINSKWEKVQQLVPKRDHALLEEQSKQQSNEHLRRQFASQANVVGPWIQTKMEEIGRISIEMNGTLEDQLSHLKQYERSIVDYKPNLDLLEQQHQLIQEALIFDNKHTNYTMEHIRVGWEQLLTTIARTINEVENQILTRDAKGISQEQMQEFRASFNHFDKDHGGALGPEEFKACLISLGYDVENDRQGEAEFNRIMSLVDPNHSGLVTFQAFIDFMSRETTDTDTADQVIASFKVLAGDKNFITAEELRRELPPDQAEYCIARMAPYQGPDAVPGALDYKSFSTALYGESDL

[13] = target: Caprin-1 (Homo sapiens) (UniProt Q14444)
[14] = target: Elongation factor 1-alpha 1 (Homo sapiens) (UniProt P68104)
Elongation factor 1-alpha 1 (Homo sapiens), sequence (P68104 2-462 limits assumed): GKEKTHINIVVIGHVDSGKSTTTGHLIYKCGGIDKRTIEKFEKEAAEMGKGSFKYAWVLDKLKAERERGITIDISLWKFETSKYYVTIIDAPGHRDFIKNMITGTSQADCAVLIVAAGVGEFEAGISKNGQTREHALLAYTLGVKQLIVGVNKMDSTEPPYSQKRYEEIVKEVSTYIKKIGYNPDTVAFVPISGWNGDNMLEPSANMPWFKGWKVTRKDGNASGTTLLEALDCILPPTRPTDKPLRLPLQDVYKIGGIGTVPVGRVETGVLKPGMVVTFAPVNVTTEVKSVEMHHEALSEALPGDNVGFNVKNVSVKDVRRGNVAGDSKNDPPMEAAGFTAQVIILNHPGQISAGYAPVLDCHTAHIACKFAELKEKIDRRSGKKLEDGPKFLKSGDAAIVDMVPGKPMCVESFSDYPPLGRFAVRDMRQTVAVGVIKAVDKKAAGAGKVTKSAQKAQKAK

[15] = target: Elongation factor 1-gamma (Homo sapiens) (UniProt P26641)
Elongation factor 1-gamma (Homo sapiens), sequence (P26641 2-437 limits assumed): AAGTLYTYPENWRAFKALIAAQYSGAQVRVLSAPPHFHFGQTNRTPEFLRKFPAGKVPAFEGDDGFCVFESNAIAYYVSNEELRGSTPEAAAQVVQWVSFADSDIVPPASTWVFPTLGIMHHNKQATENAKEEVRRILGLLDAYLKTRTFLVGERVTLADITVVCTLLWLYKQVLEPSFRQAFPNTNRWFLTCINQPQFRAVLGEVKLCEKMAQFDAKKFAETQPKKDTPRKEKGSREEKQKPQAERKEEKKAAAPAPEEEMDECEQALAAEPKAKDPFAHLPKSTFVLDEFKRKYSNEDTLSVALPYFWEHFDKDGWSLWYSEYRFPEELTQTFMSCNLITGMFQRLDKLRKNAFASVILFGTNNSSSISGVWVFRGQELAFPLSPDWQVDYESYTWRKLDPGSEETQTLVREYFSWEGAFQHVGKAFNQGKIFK

[16] = target: Endoplasmic reticulum chaperone BiP (Homo sapiens) (UniProt P11021)
[17] = target: Eukaryotic translation initiation factor 3 subunit A (Homo sapiens) (UniProt Q14152)
Eukaryotic translation initiation factor 3 subunit A (Homo sapiens), sequence (Q14152 2-1382 limits assumed): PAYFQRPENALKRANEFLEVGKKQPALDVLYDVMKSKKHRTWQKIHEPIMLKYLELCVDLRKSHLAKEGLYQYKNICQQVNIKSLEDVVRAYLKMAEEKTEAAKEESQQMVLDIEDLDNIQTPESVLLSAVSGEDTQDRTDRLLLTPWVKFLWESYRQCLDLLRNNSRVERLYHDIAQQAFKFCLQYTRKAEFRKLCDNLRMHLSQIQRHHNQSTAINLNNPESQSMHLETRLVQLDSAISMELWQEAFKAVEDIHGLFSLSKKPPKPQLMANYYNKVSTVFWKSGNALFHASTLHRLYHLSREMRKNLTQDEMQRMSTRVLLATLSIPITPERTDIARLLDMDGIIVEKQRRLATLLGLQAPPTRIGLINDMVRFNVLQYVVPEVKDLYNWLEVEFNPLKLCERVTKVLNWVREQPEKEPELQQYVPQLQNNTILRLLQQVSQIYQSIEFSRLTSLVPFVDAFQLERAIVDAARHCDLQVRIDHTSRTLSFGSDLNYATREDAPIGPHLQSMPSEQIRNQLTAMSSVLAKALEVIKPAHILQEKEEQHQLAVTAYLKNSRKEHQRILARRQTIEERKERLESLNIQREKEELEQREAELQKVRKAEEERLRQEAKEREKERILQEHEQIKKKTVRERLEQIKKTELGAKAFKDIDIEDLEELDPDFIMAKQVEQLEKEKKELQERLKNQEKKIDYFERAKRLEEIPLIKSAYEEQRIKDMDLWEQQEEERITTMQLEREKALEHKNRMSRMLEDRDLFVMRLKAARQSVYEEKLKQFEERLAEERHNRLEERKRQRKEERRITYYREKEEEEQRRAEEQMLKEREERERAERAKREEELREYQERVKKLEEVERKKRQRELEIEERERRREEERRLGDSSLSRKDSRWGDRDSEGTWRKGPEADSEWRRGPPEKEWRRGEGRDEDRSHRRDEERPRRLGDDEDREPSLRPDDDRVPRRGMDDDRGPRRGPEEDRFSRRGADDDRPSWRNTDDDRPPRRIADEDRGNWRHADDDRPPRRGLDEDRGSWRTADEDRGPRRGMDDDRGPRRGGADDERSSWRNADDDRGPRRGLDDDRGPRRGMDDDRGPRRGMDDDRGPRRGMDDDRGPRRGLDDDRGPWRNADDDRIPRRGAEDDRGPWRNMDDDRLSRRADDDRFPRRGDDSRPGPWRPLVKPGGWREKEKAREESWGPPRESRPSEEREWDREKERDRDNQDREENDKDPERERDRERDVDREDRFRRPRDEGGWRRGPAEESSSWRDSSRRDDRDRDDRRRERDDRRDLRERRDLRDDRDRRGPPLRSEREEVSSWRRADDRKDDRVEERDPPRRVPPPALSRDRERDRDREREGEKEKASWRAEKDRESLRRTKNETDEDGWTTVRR

[18] = target: Fibronectin (Homo sapiens) (UniProt P02751)
[19] = target: Filamin-C (Homo sapiens) (UniProt Q14315)
[20] = target: Heat shock 70 kDa protein 1B (Homo sapiens) (UniProt P0DMV9)
[21] = target: Heat shock protein HSP 90-alpha (Homo sapiens) (UniProt P07900)
[22] = target: Heat shock protein HSP 90-beta (Homo sapiens) (UniProt P08238)
[23] = target: Heterogeneous nuclear ribonucleoprotein H (Homo sapiens) (UniProt G8JLB6)
[24] = target: Junctional sarcoplasmic reticulum protein 1 (Homo sapiens) (UniProt Q96MG2)
[25] = target: Myosin regulatory light chain 12A (Homo sapiens) (UniProt J3QRS3)
[26] = target: Myosin-9 (Homo sapiens) (UniProt P35579)
[27] = target: Nucleosome assembly protein 1-like 1 (Homo sapiens) (UniProt P55209)
Nucleosome assembly protein 1-like 1 (Homo sapiens), sequence (P55209 2-388 limits assumed): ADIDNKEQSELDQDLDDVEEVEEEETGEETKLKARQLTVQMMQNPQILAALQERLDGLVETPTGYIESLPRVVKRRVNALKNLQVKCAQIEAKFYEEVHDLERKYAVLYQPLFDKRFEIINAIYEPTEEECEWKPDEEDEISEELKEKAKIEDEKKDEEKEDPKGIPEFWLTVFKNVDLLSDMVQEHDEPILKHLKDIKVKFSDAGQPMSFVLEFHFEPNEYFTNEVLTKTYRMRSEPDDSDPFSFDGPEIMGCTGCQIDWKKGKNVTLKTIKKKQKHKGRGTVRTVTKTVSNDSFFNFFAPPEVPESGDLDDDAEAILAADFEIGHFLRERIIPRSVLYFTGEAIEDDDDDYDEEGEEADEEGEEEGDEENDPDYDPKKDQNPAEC

[28] = target: Plectin (Homo sapiens) (UniProt Q15149)
[29] = target: Protein disulfide-isomerase (Homo sapiens) (UniProt P07237)
[30] = target: Ras GTPase-activating protein-binding protein 2 (Homo sapiens) (UniProt Q9UN86)
[31] = target: Ribonuclease inhibitor (Homo sapiens) (UniProt P13489)
Ribonuclease inhibitor (Homo sapiens), sequence (P13489 2-461 limits assumed): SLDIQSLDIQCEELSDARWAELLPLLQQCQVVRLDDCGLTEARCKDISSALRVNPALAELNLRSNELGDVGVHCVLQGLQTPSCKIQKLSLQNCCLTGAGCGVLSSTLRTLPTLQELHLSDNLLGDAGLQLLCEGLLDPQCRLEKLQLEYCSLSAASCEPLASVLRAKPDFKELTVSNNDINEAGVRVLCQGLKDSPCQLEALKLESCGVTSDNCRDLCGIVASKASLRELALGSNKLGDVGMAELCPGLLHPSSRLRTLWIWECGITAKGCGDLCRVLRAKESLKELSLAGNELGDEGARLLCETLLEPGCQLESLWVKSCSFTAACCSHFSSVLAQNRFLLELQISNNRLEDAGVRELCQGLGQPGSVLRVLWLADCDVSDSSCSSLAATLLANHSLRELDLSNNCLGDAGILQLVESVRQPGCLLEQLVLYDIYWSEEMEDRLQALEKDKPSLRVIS

[32] = target: Stress-70 protein, mitochondrial (Homo sapiens) (UniProt P38646)
[33] = target: T-complex protein 1 subunit theta (Homo sapiens) (UniProt P50990)
[34] = target: Tubulin beta-4B chain (Homo sapiens) (UniProt P68371)
[35] = target: WD repeat-containing protein 1 (Homo sapiens) (UniProt O75083)
[36] = target: X-ray repair cross-complementing protein 5 (Homo sapiens) (UniProt P13010)
[37] = target: Y-box-binding protein 3 (Homo sapiens) (UniProt P16989)
Y-box-binding protein 3 (Homo sapiens), sequence (P16989 2-372 limits assumed): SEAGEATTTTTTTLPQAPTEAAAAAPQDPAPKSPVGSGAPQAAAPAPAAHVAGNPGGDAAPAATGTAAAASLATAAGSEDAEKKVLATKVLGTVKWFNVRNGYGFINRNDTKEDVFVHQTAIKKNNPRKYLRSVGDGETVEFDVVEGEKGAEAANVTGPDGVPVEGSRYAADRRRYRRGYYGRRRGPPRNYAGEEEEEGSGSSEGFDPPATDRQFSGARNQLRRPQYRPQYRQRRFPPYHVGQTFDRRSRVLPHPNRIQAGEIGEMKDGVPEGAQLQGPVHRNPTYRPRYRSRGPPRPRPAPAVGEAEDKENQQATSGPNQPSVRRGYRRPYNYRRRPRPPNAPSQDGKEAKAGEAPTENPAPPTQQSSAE

4F2 cell-surface antigen heavy chain (Homo sapiens), sequence (P08195 103-630 limits assumed): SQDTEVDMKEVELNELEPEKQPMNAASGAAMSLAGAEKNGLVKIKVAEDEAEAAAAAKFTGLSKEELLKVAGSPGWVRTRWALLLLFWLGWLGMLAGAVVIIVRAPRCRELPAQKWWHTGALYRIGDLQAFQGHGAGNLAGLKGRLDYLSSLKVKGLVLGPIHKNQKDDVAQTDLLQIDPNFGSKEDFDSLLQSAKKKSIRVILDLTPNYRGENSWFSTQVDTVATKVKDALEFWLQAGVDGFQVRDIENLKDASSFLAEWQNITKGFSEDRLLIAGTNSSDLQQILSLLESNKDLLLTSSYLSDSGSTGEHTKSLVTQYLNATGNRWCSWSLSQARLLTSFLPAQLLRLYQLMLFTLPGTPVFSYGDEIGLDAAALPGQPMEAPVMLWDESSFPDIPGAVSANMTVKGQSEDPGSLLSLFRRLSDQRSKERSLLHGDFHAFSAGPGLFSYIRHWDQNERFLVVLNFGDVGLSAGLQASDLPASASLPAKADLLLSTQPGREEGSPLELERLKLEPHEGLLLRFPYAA

With i3XFLAG-NLS-CTDaa154-424 as the substance, how does the PSMs [1] read?
Its PSMs is 2 PSMs.

What about the PSMs [2] of the same substance?
Its PSMs is 5 PSMs.

And the PSMs [3]?
The PSMs was 2 PSMs.

What about the PSMs [4] of the same substance?
Its PSMs is 5 PSMs.

What about the PSMs [5] of the same substance?
Its PSMs is 2 PSMs.

What about the PSMs [6] of the same substance?
The PSMs was 2 PSMs.

What about the PSMs [7] of the same substance?
The PSMs was 11 PSMs.

What about the PSMs [8] of the same substance?
Its PSMs is 34 PSMs.

And the PSMs [9]?
The PSMs was 5 PSMs.

And the PSMs [10]?
The PSMs was 2 PSMs.

What about the PSMs [11] of the same substance?
The PSMs was 2 PSMs.

And the PSMs [12]?
The PSMs was 11 PSMs.

What about the PSMs [13] of the same substance?
Its PSMs is 5 PSMs.

And the PSMs [14]?
The PSMs was 21 PSMs.

And the PSMs [15]?
Its PSMs is 6 PSMs.

What about the PSMs [16] of the same substance?
Its PSMs is 62 PSMs.

And the PSMs [17]?
The PSMs was 2 PSMs.

What about the PSMs [18] of the same substance?
The PSMs was 48 PSMs.

What about the PSMs [19] of the same substance?
The PSMs was 7 PSMs.

What about the PSMs [20] of the same substance?
The PSMs was 10 PSMs.

And the PSMs [21]?
The PSMs was 9 PSMs.

What about the PSMs [22] of the same substance?
The PSMs was 14 PSMs.

What about the PSMs [23] of the same substance?
The PSMs was 7 PSMs.

What about the PSMs [24] of the same substance?
Its PSMs is 10 PSMs.

What about the PSMs [25] of the same substance?
Its PSMs is 3 PSMs.

And the PSMs [26]?
The PSMs was 242 PSMs.

What about the PSMs [27] of the same substance?
Its PSMs is 5 PSMs.

What about the PSMs [28] of the same substance?
Its PSMs is 21 PSMs.

And the PSMs [29]?
The PSMs was 5 PSMs.

What about the PSMs [30] of the same substance?
The PSMs was 3 PSMs.

And the PSMs [31]?
Its PSMs is 3 PSMs.

And the PSMs [32]?
The PSMs was 10 PSMs.

And the PSMs [33]?
The PSMs was 2 PSMs.

What about the PSMs [34] of the same substance?
Its PSMs is 70 PSMs.

And the PSMs [35]?
The PSMs was 2 PSMs.

What about the PSMs [36] of the same substance?
The PSMs was 5 PSMs.

And the PSMs [37]?
Its PSMs is 3 PSMs.
